Test results published in paper PMC6057488.

Assays:
[1] = molecular target: mouse DNGR-1 on B3Z-mDNGR-1-Syk reporter cells (mouse) (UniProt Q8BRU4)
[2] = molecular target: DNGR-1 on cDC1s (mouse (endogenous in MutuDC1940 cells and splenic cDC1s)) (UniProt Q8BRU4); experiment: flow cytometry on cells; red fluorescent streptavidin beads, uncoated or coated with F-actin or F-actin and myosin II, with GFP-expressing MutuDC1940 cells for 2 hr at 37°C; with isotype control or anti-DNGR-1 antibody 1F6

## F-actin and myosin II complexes (from UniProt P68135 1-377; Q28641 1-1938; P02602 1-192; P02608 1-170)
[1]
  NFAT β-galactosidase reporter activity of B3Z-mDNGR-1-Syk cells, titration of an equimolar mixture of F-actin and myosin II against F-actin alone: 2 log

## beads coated with biotinylated F-actin and myosin II (from UniProt P68135 1-377; Q28641 1-1938; P02602 1-192; P02608 1-170) (complex)
[2]
  percent of MutuDCs associated with beads: < 50%

## in vitro polymerized F-actin (from UniProt P68135 1-377) (natural protein)
[1]
  NFAT β-galactosidase reporter activity of B3Z-mDNGR-1-Syk cells, titration of in vitro polymerized F-actin: > 1 µM
